Measured values as given in patent US7326418B2, “Identification of novel factors that block programmed cell death or apoptosis by targeting JNK” (University of Chicago, priority 2001, dated 2008).

Target: T1, ASK1 (Homo sapiens, UniProt Q99683)
T1 sequence (Q99683 1-1374): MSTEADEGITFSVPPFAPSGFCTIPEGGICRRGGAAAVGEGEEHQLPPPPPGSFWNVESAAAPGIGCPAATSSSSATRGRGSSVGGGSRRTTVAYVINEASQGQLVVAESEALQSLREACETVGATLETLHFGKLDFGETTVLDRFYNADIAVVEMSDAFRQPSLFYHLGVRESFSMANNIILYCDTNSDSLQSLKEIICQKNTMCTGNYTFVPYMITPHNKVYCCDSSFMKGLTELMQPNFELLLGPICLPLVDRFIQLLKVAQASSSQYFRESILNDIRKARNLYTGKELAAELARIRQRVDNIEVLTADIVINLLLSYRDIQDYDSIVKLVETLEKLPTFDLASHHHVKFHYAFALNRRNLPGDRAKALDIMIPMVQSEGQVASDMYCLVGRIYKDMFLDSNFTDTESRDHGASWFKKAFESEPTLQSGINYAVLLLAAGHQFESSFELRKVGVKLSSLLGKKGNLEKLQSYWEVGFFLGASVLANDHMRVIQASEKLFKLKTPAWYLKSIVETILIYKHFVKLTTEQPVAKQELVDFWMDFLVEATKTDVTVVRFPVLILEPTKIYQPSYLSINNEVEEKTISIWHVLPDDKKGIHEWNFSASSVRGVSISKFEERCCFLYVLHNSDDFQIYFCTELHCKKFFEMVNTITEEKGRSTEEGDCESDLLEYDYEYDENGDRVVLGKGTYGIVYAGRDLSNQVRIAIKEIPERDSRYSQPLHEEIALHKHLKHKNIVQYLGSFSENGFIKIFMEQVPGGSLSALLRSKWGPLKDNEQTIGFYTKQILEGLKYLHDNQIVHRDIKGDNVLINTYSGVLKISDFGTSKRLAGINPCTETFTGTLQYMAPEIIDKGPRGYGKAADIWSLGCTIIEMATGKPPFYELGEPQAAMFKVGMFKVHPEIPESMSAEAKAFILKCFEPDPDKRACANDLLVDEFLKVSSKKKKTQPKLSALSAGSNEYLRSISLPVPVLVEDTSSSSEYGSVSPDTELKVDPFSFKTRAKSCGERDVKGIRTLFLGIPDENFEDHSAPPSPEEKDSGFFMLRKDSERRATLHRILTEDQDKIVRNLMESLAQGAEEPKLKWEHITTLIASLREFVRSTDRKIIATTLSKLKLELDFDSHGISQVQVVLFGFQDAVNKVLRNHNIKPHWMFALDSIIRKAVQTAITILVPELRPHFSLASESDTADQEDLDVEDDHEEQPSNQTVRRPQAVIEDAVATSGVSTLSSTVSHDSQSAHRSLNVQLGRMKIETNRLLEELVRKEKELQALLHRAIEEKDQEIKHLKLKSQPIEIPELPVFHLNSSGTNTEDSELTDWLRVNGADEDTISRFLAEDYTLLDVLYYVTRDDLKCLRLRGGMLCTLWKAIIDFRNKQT
Assay: GST pull-down, GST-Gadd45β beads with in vitro translated 35S-labeled ASK1
Type: binding
Parameters: plasmids encoding full-length (FL) human ASK1, MEKK4, JNKK1, and JNKK2; made in house; host or cells: TNT coupled reticulocyte lysate (Promega), in vitro transcription/translation from pBS
Method: To confirm the above interactions, in vitro, GST pull-down experiments were performed. pBluescript (pBS) plasmids encoding full-length (FL) human ASK1, MEKK4, JNKK1, and JNKK2, or polypeptides derived from the amino- or carboxy-terminal portions of ASK1 (i.e. N-ASK1, spanning from amino acids 1 to 756, and C-ASK1, spanning from amino acids 648 to 1375) were transcribed and translated in vitro using the TNT coupled retyculocyte lysate system (Promega) in the presence of ^35S-methionine. 5 μl of each translation mix were incubated, in vitro, with sepharose-4B beads that had been coated with either purified glutathione-S-transferase (GST) polypeptides or GST-Gadd45β proteins. The latter proteins contained FL murine Gadd45β directly fused to GST. Binding assays were performed according to standard procedures, and ^35S-labeled proteins that bound to beads, as well as 2 μl of each in vitro translation mix (input), were then resolved by SDS polyacrylamide gel electrophoresis. Asterisks indicate the intact translated products. […] Thus, GST pull-down experiments confirmed the strong interaction between Gadd45β and JNKK2 observed in vivo, as well as the weaker interactions of Gadd45β with other kinases in the JNK pathway. These assays also uncovered a weak association between Gadd45β and JNKK1. […]

association with ASK1: less avidly than with JNKK2
B1: GST-Gadd45β: full-length murine Gadd45β directly fused to GST, purified from E. coli (protein)
chain: MTLEELVASDNAVQKMQAVTAAVEQLLVAAQRQDRLTVGVYEAAKLMNVDPDSVVLCLLAIDEEEEDDIALQIHFTLIQSFCCDNDIDIVRVSGMQRLAQLLGEPAETLGTTEARDLHCLLVTNCHTDSWKSQGLVEVASYCEESRGNNQWVPYISLEER
modifications: left off: a dimerising Fc or GST
notes: full-length murine Gadd45β directly fused to GST, purified from E. coli
